Publication PMC9750192
Values joined by “and” are separate entries in the source; they are usually repeats but may differ in a detail not shown here. Identical values can stand only once. Like-named read-outs stand apart in the source and are kept apart here.

Columns and labels:
[1] = biological target: Taxol-stabilized microtubules enriched in tyrosinated HeLa tubulin (human (endogenous in HeLa) | not stated) (UniProt P68363); experiment: single-molecule TIRF microscopy
[2] = biological target: Taxol-stabilized microtubules enriched in detyrosinated HeLa tubulin (human (endogenous in HeLa) | not stated) (UniProt P68363); experiment: single-molecule TIRF microscopy
Sequence of Taxol-stabilized microtubules enriched in detyrosinated HeLa tubulin (human (endogenous in HeLa) | not stated) (P68363 1-450, chain 1 of 2): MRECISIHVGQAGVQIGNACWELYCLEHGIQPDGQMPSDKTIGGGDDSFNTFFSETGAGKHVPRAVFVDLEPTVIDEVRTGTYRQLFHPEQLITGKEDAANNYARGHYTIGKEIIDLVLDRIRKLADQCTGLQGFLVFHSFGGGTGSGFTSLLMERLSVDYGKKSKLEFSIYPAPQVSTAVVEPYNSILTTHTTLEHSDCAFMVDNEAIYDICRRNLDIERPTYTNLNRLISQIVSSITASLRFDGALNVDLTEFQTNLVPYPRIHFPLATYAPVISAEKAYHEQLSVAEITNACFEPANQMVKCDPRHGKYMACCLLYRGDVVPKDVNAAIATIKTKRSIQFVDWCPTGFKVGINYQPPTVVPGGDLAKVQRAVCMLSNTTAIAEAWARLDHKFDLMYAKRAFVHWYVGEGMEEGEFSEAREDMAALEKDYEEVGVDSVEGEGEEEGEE
Sequence of Taxol-stabilized microtubules enriched in detyrosinated HeLa tubulin (human (endogenous in HeLa) | not stated) (P07437 whole entry, chain 2 of 2, further chain): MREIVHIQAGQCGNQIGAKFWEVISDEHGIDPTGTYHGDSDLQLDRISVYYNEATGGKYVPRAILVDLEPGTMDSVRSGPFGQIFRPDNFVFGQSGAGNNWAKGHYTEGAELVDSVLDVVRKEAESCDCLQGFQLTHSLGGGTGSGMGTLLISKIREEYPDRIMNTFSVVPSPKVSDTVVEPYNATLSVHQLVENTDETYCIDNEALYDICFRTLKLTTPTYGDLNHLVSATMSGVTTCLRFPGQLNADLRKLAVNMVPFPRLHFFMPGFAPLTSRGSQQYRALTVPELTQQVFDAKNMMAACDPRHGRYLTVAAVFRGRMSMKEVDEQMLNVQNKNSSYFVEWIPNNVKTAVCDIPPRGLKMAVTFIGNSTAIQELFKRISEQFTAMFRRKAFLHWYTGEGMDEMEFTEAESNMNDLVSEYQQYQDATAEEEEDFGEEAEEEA

[3] = biological target: Taxol-stabilized microtubules enriched in tyrosinated HeLa tubulin (human (endogenous in HeLa) | not stated) (UniProt P68363); experiment: single-molecule TIRF microscopy; remark: listed apart in the source
[4] = biological target: Taxol-stabilized microtubules enriched in tyrosinated HeLa tubulin (human (endogenous in HeLa) | not stated) (UniProt P68363); experiment: single-molecule TIRF microscopy; remark: listed apart in the source
[5] = biological target: Taxol-stabilized microtubules enriched in tyrosinated HeLa tubulin (human (endogenous in HeLa) | not stated) (UniProt P68363); experiment: single-molecule TIRF microscopy; remark: listed apart in the source
[6] = biological target: Taxol-stabilized microtubules enriched in detyrosinated HeLa tubulin (human (endogenous in HeLa) | not stated) (UniProt P68363); experiment: single-molecule TIRF microscopy; remark: listed apart in the source
[7] = biological target: Taxol-stabilized microtubules enriched in tyrosinated HeLa tubulin (human (endogenous in HeLa) | not stated) (UniProt P68363); experiment: single-molecule TIRF microscopy; remark: listed apart in the source
[8] = biological target: GMPCPP-stabilized HeLa cell microtubules (human (endogenous in HeLa)) (UniProt P68363); experiment: cryo-EM structure
[9] = biological target: GMPCPP-stabilized HeLa cell microtubules (human (endogenous in HeLa)) (UniProt P68363); experiment: cryo-EM structure; remark: listed apart in the source

Sequence of full-length sfGFP-VASH1–SVBP complex (Q7L8A9 whole entry): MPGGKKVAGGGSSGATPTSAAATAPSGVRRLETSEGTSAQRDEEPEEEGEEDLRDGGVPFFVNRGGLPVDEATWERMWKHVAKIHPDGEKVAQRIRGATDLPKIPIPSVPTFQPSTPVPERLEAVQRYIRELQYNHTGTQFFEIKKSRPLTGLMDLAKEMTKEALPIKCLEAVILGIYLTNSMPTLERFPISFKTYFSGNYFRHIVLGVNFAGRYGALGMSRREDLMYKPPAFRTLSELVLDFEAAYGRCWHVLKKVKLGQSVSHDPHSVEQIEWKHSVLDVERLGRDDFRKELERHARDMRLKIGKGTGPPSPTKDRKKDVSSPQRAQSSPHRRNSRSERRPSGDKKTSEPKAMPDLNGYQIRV
Sequence of full-length sfGFP-VASH1–SVBP complex (Q8N300 whole entry): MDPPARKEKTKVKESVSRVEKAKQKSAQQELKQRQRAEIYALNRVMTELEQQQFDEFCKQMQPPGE
Sequence of Taxol-stabilized microtubules enriched in tyrosinated HeLa tubulin (human (endogenous in HeLa) | not stated) (P68363 whole entry, chain 1 of 2): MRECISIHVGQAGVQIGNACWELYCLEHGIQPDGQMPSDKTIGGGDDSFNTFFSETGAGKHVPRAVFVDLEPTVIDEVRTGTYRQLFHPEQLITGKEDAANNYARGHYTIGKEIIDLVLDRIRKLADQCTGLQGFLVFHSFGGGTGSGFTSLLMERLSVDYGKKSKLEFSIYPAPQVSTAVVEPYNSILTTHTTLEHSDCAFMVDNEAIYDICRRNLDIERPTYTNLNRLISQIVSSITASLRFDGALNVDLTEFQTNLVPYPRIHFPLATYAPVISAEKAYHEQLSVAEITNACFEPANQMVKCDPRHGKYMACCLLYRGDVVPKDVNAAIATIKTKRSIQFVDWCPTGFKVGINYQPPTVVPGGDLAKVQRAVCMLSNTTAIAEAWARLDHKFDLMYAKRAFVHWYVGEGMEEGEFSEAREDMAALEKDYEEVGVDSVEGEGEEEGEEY
Sequence of Taxol-stabilized microtubules enriched in tyrosinated HeLa tubulin (human (endogenous in HeLa) | not stated) (P07437 whole entry, chain 2 of 2, further chain): as the sequence (P07437 whole entry, chain 2 of 2, further chain) above
Sequence of full-length sfGFP-VASH2–SVBP complex (Q86V25 whole entry): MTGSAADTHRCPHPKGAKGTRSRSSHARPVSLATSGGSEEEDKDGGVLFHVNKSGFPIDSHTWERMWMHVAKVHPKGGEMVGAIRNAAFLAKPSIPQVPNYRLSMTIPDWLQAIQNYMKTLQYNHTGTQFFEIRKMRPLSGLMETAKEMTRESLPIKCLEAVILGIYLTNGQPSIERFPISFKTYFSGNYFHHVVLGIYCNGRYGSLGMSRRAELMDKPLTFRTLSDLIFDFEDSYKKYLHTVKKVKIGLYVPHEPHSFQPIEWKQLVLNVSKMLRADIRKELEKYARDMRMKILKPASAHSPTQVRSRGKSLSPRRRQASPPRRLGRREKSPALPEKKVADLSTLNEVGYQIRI
Sequence of full-length sfGFP-VASH2–SVBP complex (Q8N300 whole entry): as the sequence (Q8N300 whole entry) above

binding frequency (min^−1.nM^−1.µm^-1) [1] | residence time τ [2] [s] | binding frequency (min-1.nM^−1.µm^−1) [3] | binding frequency (min^−1.nM^−1.µm^-1) [3] | mean covering of the microtubule surface during a 45 s movie [3] [%] | residence time τ [3] | residence time τ [4] [s] | residence time τ [5] [s] | Substance | other results
86.4 | 0.6 | 80.4 | 132 | 82 | 1 s and 1.2 s |  |  | catalytically dead full-length sfGFP-VASH1(C169A)–SVBP complex (from UniProt Q7L8A9-1 1-365; Q8N300 1-66) | 
 |  | 70.7 |  |  |  |  |  | dead VASH1 core domain (sfGFP-VASH1 57–307 C169A) in complex with SVBP (from UniProt Q7L8A9-1 57-307; Q8N300 1-66) | 
 |  |  | 13 | 25 | > 11 s | > 12.9 | 3.9 | full-length sfGFP-VASH2–SVBP complex (from UniProt Q86V25-1 1-355; Q8N300 1-66) | residence time τ [6]: 0.6 s; residence time τ [7]: 0.9 s
51.6 | 0.5 |  | 80.8 | 75 | 0.5 s and 0.8 s | 1.2 | 0.2 | full-length sfGFP-VASH1–SVBP complex (from UniProt Q7L8A9-1 1-365; Q8N300 1-66) | residence time τ [1]: 0.8 s; binding frequency (min^−1.nM^−1.µm^-1) [5]: 3
 |  |  | 13.9 | 28 | > 14.6 s |  |  | catalytically dead full-length sfGFP-VASH2(C158A)–SVBP complex (from UniProt Q86V25-1 1-355; Q8N300 1-66) | 
 |  |  |  |  |  |  |  | catalytically dead VASH2(Cys158Ala)–SVBP complex for cryo-EM (from UniProt Q86V25 1-355; Q8N300 1-66) | occupancy of the binding sites on the microtubule [8]: 40%; occupancy of the binding sites on the microtubule [9]: 50.9%
